# T1: mouse IL-18BP (amino acids 31-194) (mouse, UniProt Q9Z0M9 29-193, biotinylated on the AviTag (BirA ligase))
# T1 construct: Secreted decoy receptor; made in Expi293 cells (H7 signal peptide); the stated range is the same as for the human protein; also called mIL-18BP
# T1 sequence: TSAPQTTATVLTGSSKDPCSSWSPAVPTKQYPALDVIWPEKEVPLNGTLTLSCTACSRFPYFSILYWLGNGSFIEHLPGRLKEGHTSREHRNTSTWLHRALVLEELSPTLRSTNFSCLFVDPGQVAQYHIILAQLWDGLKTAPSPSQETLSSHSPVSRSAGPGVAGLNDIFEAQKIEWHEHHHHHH
# B1: mE8 (ligand)
# chain: NFGRLHCTTAVIRNINDQVLFVDKRQPVFEDMTDIDQSASEPQTRLIIYVYTDGRRRGKAVTLSVKDSKMSTLSCKNKIISFEEMDPPENIDDIQSDLIFFQKKVPGHDKMEFESSLYEGHFLACQKEDDAFKLILKKKDENGDKSVMFTLTNLHQS
# notes: recombinant with C-terminal hexahistidine tag in SPR
# Tests used:
# [1] = target: T1, mouse IL-18BP (amino acids 31-194); experiment: SPR; KD IL-18BP / KD IL-18Rα (30 µM used for NBD)
# Description: By contrast, very little binding is observed with the same variants and mIL-18BP (right). (FIG. 11B) Representative surface plasmon resonance sensorgrams between immobilized biotinylated mIL-18BP and the murine DR-IL-18 variants.
# Experiments were conducted using a Biacore™ T100 (Protein analysis interaction system) and carried out at 25° C. Biotinylated IL-18Rα or TL-18BP were immobilized onto a Biacore™ biotin capture chip (Series S CAP sensor chip, GE Healthcare) to yield an Rmax of ˜50 RU (IL-18Rα) or ˜10 RU (IL-18BP). Measurements were made with serial dilutions of the IL-18 variants in HEPES buffered Saline-P+ buffer (10 mM HEPES pH 7.4, 150 mM NaCl, 0.005% surfactant P20). The surface was regenerated by three 60-see injections of regeneration buffer (3/4 (v/v) 8M guanidine hydrochloride with 1/4 (v/v) 1M sodium hydroxide). Experiments were performed in multiple channels simultaneously for increased observations. All data were analyzed with the Biacore™ T100 evaluation software version 2.0 with a 1:1 Langmuir binding model.
# [2] = target: T1, mouse IL-18BP (amino acids 31-194); experiment: on-yeast isotherms; KD IL-18BP / KD IL-18Rα (10 µM used for NBD)
binder,measurement,setting,value
B1,KD ratio: IL-18BP/IL-18Rα,[1],> 17800
same,KD ratio: IL-18BP/IL-18Rα,[2],> 238
